Where a chain is given by its changes, count along the chain named. Names and notes keep the numbering of the source.

Assay [1] concerns the target T1, GFP-FoxM1B 1-688 protein (human, UniProt Q08050 1-703).
T1 construct: not shown: green fluorescent protein (EGFP) of the pEGFP-C2 expression plasmid (Clontech), N-terminal fusion partner
T1 sequence: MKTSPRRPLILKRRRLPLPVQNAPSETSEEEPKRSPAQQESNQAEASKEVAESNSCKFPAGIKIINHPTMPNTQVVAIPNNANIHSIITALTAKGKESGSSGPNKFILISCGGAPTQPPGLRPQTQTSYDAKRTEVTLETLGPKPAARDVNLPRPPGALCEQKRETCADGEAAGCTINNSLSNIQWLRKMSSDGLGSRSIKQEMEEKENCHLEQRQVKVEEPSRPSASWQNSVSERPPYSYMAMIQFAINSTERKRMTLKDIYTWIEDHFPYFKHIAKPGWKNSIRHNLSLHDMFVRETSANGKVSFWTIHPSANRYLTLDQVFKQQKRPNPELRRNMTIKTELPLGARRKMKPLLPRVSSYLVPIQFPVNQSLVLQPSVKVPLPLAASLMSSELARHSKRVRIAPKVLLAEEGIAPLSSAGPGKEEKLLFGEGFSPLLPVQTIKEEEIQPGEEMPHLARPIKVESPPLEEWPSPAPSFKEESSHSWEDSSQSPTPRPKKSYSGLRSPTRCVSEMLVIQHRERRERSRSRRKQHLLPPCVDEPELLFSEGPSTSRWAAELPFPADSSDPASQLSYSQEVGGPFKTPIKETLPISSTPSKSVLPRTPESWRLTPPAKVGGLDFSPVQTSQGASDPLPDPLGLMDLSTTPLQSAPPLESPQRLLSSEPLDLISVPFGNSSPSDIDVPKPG
The experiment in a line: Co-IP from transfected U2OS extracts.

The target in assay [2] is T2, GFP-FoxM1B fusion protein, wild type (CMV GFP-FoxM1B; GFP-T7-FoxM1B WT; GFP-FoxM1B 1-748 full-length) (human, UniProt Q08050 1-763).
T2 construct: Expressed in transfected U2OS cells; also called CMV-GFP-T7-FoxM1B; GFP-FoxM1B WT; not shown: green fluorescent protein (EGFP) of the pEGFP-C2 expression plasmid (Clontech), N-terminal fusion partner
T2 sequence: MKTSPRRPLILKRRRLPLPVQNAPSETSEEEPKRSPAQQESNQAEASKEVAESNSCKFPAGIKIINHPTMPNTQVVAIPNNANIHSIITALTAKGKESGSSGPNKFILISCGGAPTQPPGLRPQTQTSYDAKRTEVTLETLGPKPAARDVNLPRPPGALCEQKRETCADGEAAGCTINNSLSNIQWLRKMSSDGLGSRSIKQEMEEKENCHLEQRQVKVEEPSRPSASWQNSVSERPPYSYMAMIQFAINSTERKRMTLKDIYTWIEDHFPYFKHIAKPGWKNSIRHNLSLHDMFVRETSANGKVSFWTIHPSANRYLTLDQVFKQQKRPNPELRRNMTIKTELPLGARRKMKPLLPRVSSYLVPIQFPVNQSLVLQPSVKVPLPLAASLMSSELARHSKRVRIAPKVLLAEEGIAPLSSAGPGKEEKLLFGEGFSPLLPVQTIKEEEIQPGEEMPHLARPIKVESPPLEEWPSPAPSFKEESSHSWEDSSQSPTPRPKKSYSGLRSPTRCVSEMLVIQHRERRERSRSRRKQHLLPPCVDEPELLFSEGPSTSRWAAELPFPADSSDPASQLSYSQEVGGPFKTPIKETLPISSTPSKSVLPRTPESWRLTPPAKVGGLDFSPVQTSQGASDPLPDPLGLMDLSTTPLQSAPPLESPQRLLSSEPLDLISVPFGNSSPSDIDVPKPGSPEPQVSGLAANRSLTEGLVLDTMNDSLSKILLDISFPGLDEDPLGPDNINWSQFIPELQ
The experiment in a line: Co-IP with HA antibody, Western blot with GFP antibody. (In general: In western blotting, separated proteins are transferred to a membrane and probed.)

In assay [3] the target is Cdk2 protein (human, UniProt P24941 1-298). The experiment in a line: Co-IP from transfected U2OS extracts with Cdk2 antibody, Western blot with T7 tag antibody.
Excerpt: The immunoprecipitated proteins were subjected to Western blot analysis using a monoclonal antibody against the T7 epitope tagged antibody protein.

B1: HA-p19^ARF WT protein (other, not shown: small tags and cut ends)
chain: MGRRFLVTVRIQRAGRPLQERVFLVKFVRSRRPRTASCALAFVNMLLRLERILRRGPHRNPGPGDDDGQRSRSSSSAQLRCRFELRGPHYLLPPGDRRSAGRLPGHAGGAARVRGSAGCARCLGSPAARLGPRAGTSRHRAIFAFRWVLFVFRWVVFVYRWERRPDRRA
notes: residues 26-44 of it are the printed p19ARF 26-44 peptide; Expressed in transfected U2OS cells; also called WT p19; HA tagged p19
B1: the binding result in assay [1] was “no binding”.

B2: HA-p19^ARF Δ26-37+Δ1-14 deletion mutant (other, not shown: small tags and cut ends)
chain: GRPLQERVFLVCALAFVNMLLRLERILRRGPHRNPGPGDDDGQRSRSSSSAQLRCRFELRGPHYLLPPGDRRSAGRLPGHAGGAARVRGSAGCARCLGSPAARLGPRAGTSRHRAIFAFRWVLFVFRWVVFVYRWERRPDRRA
notes: Deletion of p19 residues 1-14 and 26-37
As to B2, in assay [2], the binding result was “no binding”.

B3: HA-p19^ARF Δ26-37 deletion mutant (other, not shown: small tags and cut ends)
chain: MGRRFLVTVRIQRAGRPLQERVFLVCALAFVNMLLRLERILRRGPHRNPGPGDDDGQRSRSSSSAQLRCRFELRGPHYLLPPGDRRSAGRLPGHAGGAARVRGSAGCARCLGSPAARLGPRAGTSRHRAIFAFRWVLFVFRWVVFVYRWERRPDRRA
notes: Deletion of p19 residues 26-37; also called CMV p19^ARFΔ26-37
Turning to B3, the binding result in assay [2] is reported as “no binding”.

B4: T7-FoxM1B L641A mutant protein (other, not shown: small tags and cut ends)
chain: T2 sequence with L641A
notes: expressed in transfected U2OS cells; also called CMV T7-FoxM1B L641A; CMV FoxM1B L641A
For B4, the binding result in assay [3] is on record as “no binding”.

The record behind these values is patent US20130196933A1 (BOARD OF TRUSTEES OF THE UNIVERSITY OF ILLINOIS, published 2013).
